# Results published in publication PMC9995517 (2023).
# B1: tyrosyl-tRNA synthetase E196K (CMT-causing mutant), recombinant Xpress-6xHis tagged (His-YARS1^E196K) (enzyme)
# chain: MGDAPSPEEKLHLITRNLQEVLGEEKLKEILKERELKIYWGTATTGKPHVAYFVPMSKIADFLKAGCEVTILFADLHAYLDNMKAPWELLELRVSYYENVIKAMLESIGVPLEKLKFIKGTDYQLSKEYTLDVYRLSSVVTQHDSKKAGAEVVKQVEHPLLSGLLYPGLQALDEEYLKVDAQFGGIDQRKIFTFAKKYLPALGYSKRVHLMNPMVPGLTGSKMSSSEEESKIDLLDRKEDVKKKLKKAFCEPGNVENNGVLSFIKHVLFPLKSEFVILRDEKWGGNKTYTAYVDLEKDFAAEVVHPGDLKNSVEVALNKLLDPIREKFNTPALKKLASAAYPDPSKQKPMAKGPAKNSEPEEVIPSRLDIRVGKIITVEKHPDADSLYVEKIDVGEAEPRTVVSGLVQFVPKEELQDRLVVVLCNLKPQKMRGVESQGMLLCASIEGINRQVEPLDPPAGSAPGEHVFVKGYEKGQPDEELKPKKKVFEKLQADFKISEECIAQWKQTNFMTKLGSISCKSLKGGNIS
# B2: tyrosyl-tRNA synthetase, wild type, recombinant Xpress-6xHis tagged (His-YARS1^WT) (enzyme)
# chain: MGDAPSPEEKLHLITRNLQEVLGEEKLKEILKERELKIYWGTATTGKPHVAYFVPMSKIADFLKAGCEVTILFADLHAYLDNMKAPWELLELRVSYYENVIKAMLESIGVPLEKLKFIKGTDYQLSKEYTLDVYRLSSVVTQHDSKKAGAEVVKQVEHPLLSGLLYPGLQALDEEYLKVDAQFGGIDQRKIFTFAEKYLPALGYSKRVHLMNPMVPGLTGSKMSSSEEESKIDLLDRKEDVKKKLKKAFCEPGNVENNGVLSFIKHVLFPLKSEFVILRDEKWGGNKTYTAYVDLEKDFAAEVVHPGDLKNSVEVALNKLLDPIREKFNTPALKKLASAAYPDPSKQKPMAKGPAKNSEPEEVIPSRLDIRVGKIITVEKHPDADSLYVEKIDVGEAEPRTVVSGLVQFVPKEELQDRLVVVLCNLKPQKMRGVESQGMLLCASIEGINRQVEPLDPPAGSAPGEHVFVKGYEKGQPDEELKPKKKVFEKLQADFKISEECIAQWKQTNFMTKLGSISCKSLKGGNIS
# Biological target: F-actin (preassembled filaments of rabbit skeletal muscle actin) (rabbit, UniProt P68135 1-377)
binder,measurement,value
B1,Kd,800 nM
B2,Kd,750 nM
